Target: c-MET protein (Homo sapiens (Human)) (UniProt P08581)
Test: immunomagnetic capture of spiked c-MET expressing cell lines by anti-c-MET ferrofluid

UniProt P08581, sequence (P08581 25-1390 limits assumed): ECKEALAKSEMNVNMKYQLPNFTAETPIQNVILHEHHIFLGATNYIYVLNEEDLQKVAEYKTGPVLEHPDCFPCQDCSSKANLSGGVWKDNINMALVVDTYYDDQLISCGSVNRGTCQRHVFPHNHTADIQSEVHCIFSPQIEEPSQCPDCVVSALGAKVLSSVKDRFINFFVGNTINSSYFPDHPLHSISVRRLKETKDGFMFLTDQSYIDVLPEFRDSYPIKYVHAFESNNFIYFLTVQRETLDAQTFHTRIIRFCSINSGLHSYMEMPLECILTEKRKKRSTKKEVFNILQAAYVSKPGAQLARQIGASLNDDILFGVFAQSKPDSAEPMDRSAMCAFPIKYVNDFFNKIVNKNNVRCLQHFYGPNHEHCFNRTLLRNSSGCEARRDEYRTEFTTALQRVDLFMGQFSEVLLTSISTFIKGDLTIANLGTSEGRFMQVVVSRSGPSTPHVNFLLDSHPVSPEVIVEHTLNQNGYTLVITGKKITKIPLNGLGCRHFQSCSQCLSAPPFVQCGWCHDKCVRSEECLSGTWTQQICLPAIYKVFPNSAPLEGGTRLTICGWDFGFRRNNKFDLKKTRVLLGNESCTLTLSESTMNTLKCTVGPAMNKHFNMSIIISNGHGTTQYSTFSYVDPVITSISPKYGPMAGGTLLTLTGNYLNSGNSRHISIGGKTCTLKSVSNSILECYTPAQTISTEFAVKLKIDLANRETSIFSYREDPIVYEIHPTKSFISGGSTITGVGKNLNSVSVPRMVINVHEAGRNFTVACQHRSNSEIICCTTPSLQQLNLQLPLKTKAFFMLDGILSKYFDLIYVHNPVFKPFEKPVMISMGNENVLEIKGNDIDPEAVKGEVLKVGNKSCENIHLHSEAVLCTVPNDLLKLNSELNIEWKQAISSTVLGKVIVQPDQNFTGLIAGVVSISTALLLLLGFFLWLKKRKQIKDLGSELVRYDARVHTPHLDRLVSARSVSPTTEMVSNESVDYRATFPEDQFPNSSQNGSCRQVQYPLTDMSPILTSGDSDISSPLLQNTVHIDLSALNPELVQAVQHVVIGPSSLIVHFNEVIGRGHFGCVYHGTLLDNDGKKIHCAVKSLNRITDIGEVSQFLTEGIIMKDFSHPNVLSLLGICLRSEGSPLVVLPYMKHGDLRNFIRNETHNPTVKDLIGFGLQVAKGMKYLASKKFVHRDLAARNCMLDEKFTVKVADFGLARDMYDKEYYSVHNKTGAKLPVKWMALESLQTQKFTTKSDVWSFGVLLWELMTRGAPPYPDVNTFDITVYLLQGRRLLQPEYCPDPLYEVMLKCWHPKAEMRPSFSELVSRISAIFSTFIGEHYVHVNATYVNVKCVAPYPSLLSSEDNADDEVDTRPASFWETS

“HGF R/c-MET Antibody clone L6E7 (Cell Signaling Technologies), as anti-c-MET ferrofluid” showed a recovery of c-MET cells of 20 to 40%.
